Assay results from the supplement of paper PMC9233669.
Fewer inactive variants are shown than the library holds.

Tests used:
biotinyl-Leu-oxazolone = test: self-aminoacylation, catalytic enhancement (BLO) (fold over background); higher = more active; k-Seq, kA / k0A0; sequences stand for … in GGGAAUGGAUCCACAUCUACGAAUUC…UUCACUGCAGACUUGACGAAGCUG
Summary of the method: (§1)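 The uncatalyzed rate is the low-activity peak of a bimodal Gaussian fit, and catalytic enhancement is median kA divided by it. The kA values came from pseudo-first-order fits, with 1000 bootstraps, of per-sequence fraction reacted measured by streptavidin capture, triplicate qPCR and Illumina sequencing. Mutagenized RNA pools with a 21-nt variable region (0.43 μM) were reacted with each biotinyl-aminoacyl-oxazolone at 2–1250 μM in 50 μL HEPES/NaCl/KCl/MgCl2/CaCl2 buffer with 5% acetonitrile, pH 6.9–7.0, for 90 minutes at room temperature.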

biotinyl-Met-oxazolone = test: self-aminoacylation, catalytic enhancement (BMO) (fold over background); higher = more active; k-Seq, kA / k0A0; sequences stand for … in GGGAAUGGAUCCACAUCUACGAAUUC…UUCACUGCAGACUUGACGAAGCUG
Summary of the method: as §1

biotinyl-Phe-oxazolone = test: self-aminoacylation, catalytic enhancement (BFO) (fold over background); higher = more active; k-Seq, kA / k0A0; sequences stand for … in GGGAAUGGAUCCACAUCUACGAAUUC…UUCACUGCAGACUUGACGAAGCUG
Summary of the method: as §1

biotinyl-Ile-oxazolone = test: self-aminoacylation, catalytic enhancement (BIO) (fold over background); higher = more active; k-Seq, kA / k0A0; sequences stand for … in GGGAAUGGAUCCACAUCUACGAAUUC…UUCACUGCAGACUUGACGAAGCUG
Summary of the method: as §1

biotinyl-Val-oxazolone = test: self-aminoacylation, catalytic enhancement (BVO) (fold over background); higher = more active; k-Seq, kA / k0A0; sequences stand for … in GGGAAUGGAUCCACAUCUACGAAUUC…UUCACUGCAGACUUGACGAAGCUG
Summary of the method: as §1

biotinyl-Trp-oxazolone = test: self-aminoacylation, catalytic enhancement (BWO) (fold over background); higher = more active; k-Seq, kA / k0A0; sequences stand for … in GGGAAUGGAUCCACAUCUACGAAUUC…UUCACUGCAGACUUGACGAAGCUG
Summary of the method: as §1

Sequence | self-aminoacylation (biotinyl-Leu-oxazolone) | self-aminoacylation (biotinyl-Met-oxazolone) | self-aminoacylation (biotinyl-Phe-oxazolone) | self-aminoacylation (biotinyl-Ile-oxazolone) | self-aminoacylation (biotinyl-Val-oxazolone) | self-aminoacylation (biotinyl-Trp-oxazolone)
GUUCACCUAAGUCAUCGGGUG [Fam2.2 aminoacylation ribozyme variant] | 9.78 | 7.53 | 51.4 | 5.38 | 5.4 | 7.87
GUUCACCUAGGACAUCGGGUG [Fam2.2 aminoacylation ribozyme variant] | 4.61 | 3.24 | 16.3 | 3.61 | 3.56 | 5.67
GUUCACCUAGGUCAUCGGUUG [Fam2.2 aminoacylation ribozyme variant] | 1.38 | 1.09 | 2.93 | 1.17 | 1.11 | 1.41
GUUCACCUAGGUCUUCGGGUG [Fam2.2 aminoacylation ribozyme variant] | 5.73 | 4.89 | 33.8 | 3.83 | 4.05 | 5.22
GUUCACCUAGGUUAUCGGGUG [Fam2.2 aminoacylation ribozyme variant] | 4.08 | 4.84 | 34 | 3.41 | 3.44 | 5.35
GUUCACCUAGUUCAUCGGGUG [Fam2.2 aminoacylation ribozyme variant] | 2.37 | 2.66 | 15.4 | 2.79 | 2.9 | 4.15
GUUCACCUCGGUCAUCGGGUG [Fam2.2 aminoacylation ribozyme variant] | 4.52 | 4.1 | 28.6 | 3.61 | 4.29 | 3.77
GUUCACCUGGGUCAUCGGGUG [Fam2.2 aminoacylation ribozyme variant] | 5.35 | 5.48 | 39.4 | 4.47 | 5.58 | 8.32
GUUCCCCUGGUCAUCGAGUGA [Fam2.1 aminoacylation ribozyme variant] | 6.48 | 5.84 | 43.4 | 3.35 | 3.82 | 7.5
GUUGACCUAGGUCAUCGGGUG [Fam2.2 aminoacylation ribozyme variant] | 5.05 | 3.52 | 20 | 4.11 | 3.67 | 5.59
GUUUACCUAGGUCAUCGGGUG [Fam2.2 aminoacylation ribozyme variant] | 39.7 | 29 | 201 | 16.2 | 14.1 | 23.9
UAGUUAGCUAAUAGUCGCAAG [Fam3.1 aminoacylation ribozyme variant] | 1.8 | 2.06 | 2.37 | 1.72 | 1.52 | 1.11
UAGUUUACUAAUAGUCGCAAG [Fam3.1 aminoacylation ribozyme variant] | 1.36 | 1.41 | 2.86 | 1.45 | 1.48 | 1.65
UAGUUUGCCAAUAGUCGCAAG [Fam3.1 aminoacylation ribozyme variant] | 1.87 | 1.77 | 2.96 | 1.61 | 1.61 | 1.99
UAGUUUGCUAAGAGUCGCAAG [Fam3.1 aminoacylation ribozyme variant] | 0.952 | 1.1 | 1.77 | 1.12 | 1.18 | 1.22
UAGUUUGCUAAUAAUCGCAAG [Fam3.1 aminoacylation ribozyme variant] | 0.887 | 1.04 | 1.77 | 1.11 | 1.12 | 0.875
UAGUUUGCUAAUAGUCACAAG [Fam3.1 aminoacylation ribozyme variant] | 1.76 | 1.51 | 5.1 | 1.41 | 1.31 | 2.38
UAGUUUGCUAAUCGUCGCAAG [Fam3.1 aminoacylation ribozyme variant] | 1.11 | 1.51 | 1.65 | 1.62 | 1.31 | 1.59
UAGUUUGCUAGUAGUCGCAAG [Fam3.1 aminoacylation ribozyme variant] | 1.1 | 1.17 | 1.53 | 1.09 | 0.974 | 0.854
UCACAAUUCAAGCAAUCGGUC [Fam1B.1 aminoacylation ribozyme variant] | 0.949 | 0.989 | 1.8 | 1.04 | 0.986 | 1.39
UCACACUUCAAACAAUCGGUC [Fam1B.1 aminoacylation ribozyme variant] | 2.25 | 1.66 | 89.1 | 1.34 | 1.55 | 42.8
UCACACUUCAACCAAUCGGUC [Fam1B.1 aminoacylation ribozyme variant] | 2.44 | 1.71 | 54.2 | 1.45 | 1.75 | 37.1
UCACACUUCAAGCAAUCGGAC [Fam1B.1 aminoacylation ribozyme variant] | 0.598 | 0.732 | 1.56 | 0.844 | 0.821 | 0.994
UCACACUUCAAUCAAUCGGUC [Fam1B.1 aminoacylation ribozyme variant] | 1.49 | 1.12 | 35.5 | 1.11 | 1.08 | 21.3
UCACACUUCCAGCAAUCGGUC [Fam1B.1 aminoacylation ribozyme variant] | 1.02 | 1.14 | 1.01 | 1.19 | 1.24 | 0.854
UCACACUUGAAGCAAUCGGUC [Fam1B.1 aminoacylation ribozyme variant] | 0.751 | 0.762 | 0.541 | 0.744 | 0.774 | 0.486

Sequence | self-aminoacylation (biotinyl-Leu-oxazolone) | self-aminoacylation (biotinyl-Met-oxazolone) | self-aminoacylation (biotinyl-Phe-oxazolone) | self-aminoacylation (biotinyl-Ile-oxazolone) | self-aminoacylation (biotinyl-Val-oxazolone) | self-aminoacylation (biotinyl-Trp-oxazolone)
UCACACUUUAAGCAAUCGGUC [Fam1B.1 aminoacylation ribozyme variant] | 0.791 | 0.694 | 0.841 | 0.869 | 0.857 | 0.764
UCACAGUUCAAGCAAUCGGUC [Fam1B.1 aminoacylation ribozyme variant] | 1.16 | 1.01 | 4.16 | 1.05 | 0.999 | 3.12
UCUACCCUGGUCAUCGAGUGA [Fam2.1 aminoacylation ribozyme variant] | 9.36 | 10.4 | 14.6 | 5.18 | 5.79 | 12.6
UGACUUCAAACAAUCGGUCUG [Fam1A.1 aminoacylation ribozyme variant] | 2.53 | 2.05 | 96.8 | 1.73 | 1.73 | 39.2
UGGUUUGCUAAUAGUCGCAAG [Fam3.1 aminoacylation ribozyme variant] | 1.58 | 1.88 | 8.93 | 1.81 | 1.51 | 4.47
UGUACCCUGGUCAUCGAGUGA [Fam2.1 aminoacylation ribozyme variant] | 7.2 | 5.72 | 10.3 | 4.06 | 3.66 | 8.02
UUAACCCUGGUCAUCGAGUGA [Fam2.1 aminoacylation ribozyme variant] | 12 | 11.7 | 20.2 | 5.63 | 5.9 | 11.5
UUACACUUCAAGCAAUCGGUC [Fam1B.1 aminoacylation ribozyme variant] | 1.5 | 1.26 | 30.4 | 1.25 | 1.14 | 15.7
UUACUUCAAAAAAUCGGUCUG [Fam1A.1 aminoacylation ribozyme variant] | 1.29 | 1.22 | 7.17 | 1.44 | 0.984 | 5.65
UUACUUCAAACAAUCGGUCUC [Fam1A.1 aminoacylation ribozyme variant] | 1.4 | 1.17 | 31.6 | 1.2 | 1.04 | 17.2
UUACUUCAAACAAUCGGUCUG [Fam1A.1 aminoacylation ribozyme variant] | 1.69 | 1.29 | 37.4 | 1.3 | 1.22 | 20.7
UUACUUCAAACAAUCUGUCUG [Fam1A.1 aminoacylation ribozyme variant] | 1.38 | 1.42 | 3.15 | 1.45 | 1.35 | 2.09
UUACUUCAAACAAUGGGUCUG [Fam1A.1 aminoacylation ribozyme variant] | 1.06 | 1.03 | 0.83 | 1.05 | 1.05 | 1.23
UUACUUCAAACCAUCGGUCUG [Fam1A.1 aminoacylation ribozyme variant] | 0.847 | 1.06 | 1.23 | 1.09 | 1.03 | 1.02
UUACUUCAAGCAAUCGGUCUG [Fam1A.1 aminoacylation ribozyme variant] | 1.26 | 1.12 | 5.97 | 0.993 | 0.95 | 3.89
UUACUUCACACAAUCGGUCUG [Fam1A.1 aminoacylation ribozyme variant] | 1.17 | 1.06 | 1.66 | 1.27 | 1.28 | 1.03
UUACUUCAGACAAUCGGUCUG [Fam1A.1 aminoacylation ribozyme variant] | 1.3 | 1.11 | 1.73 | 1.14 | 1.12 | 1.12
UUACUUUAAACAAUCGGUCUG [Fam1A.1 aminoacylation ribozyme variant] | 0.878 | 1.38 | 1.4 | 1.11 | 1.11 | 1.25
UUGCUUCAAACAAUCGGUCUG [Fam1A.1 aminoacylation ribozyme variant] | 3.55 | 2.25 | 147 | 2.12 | 1.91 | 53.4
UUUACCCUGGUCAACGAGUGA [Fam2.1 aminoacylation ribozyme variant] | 5.66 | 5.61 | 26.1 | 3 | 3.5 | 8.31
UUUACCCUGGUCACCGAGUGA [Fam2.1 aminoacylation ribozyme variant] | 7.47 | 7.62 | 44.3 | 3.3 | 4.12 | 8
UUUACCCUGGUCAUCCAGUGA [Fam2.1 aminoacylation ribozyme variant] | 4.72 | 4.91 | 15.7 | 3.12 | 2.98 | 6.23
UUUACCCUGGUCAUCGAGAGA [Fam2.1 aminoacylation ribozyme variant] | 1.32 | 1.61 | 2.19 | 1.28 | 1.3 | 1.86
UUUACCCUGGUCAUCGAGCGA [Fam2.1 aminoacylation ribozyme variant] | 3.21 | 3.05 | 2.17 | 2.16 | 2.43 | 3.52
UUUACCCUGGUCAUCGAGUGU [Fam2.1 aminoacylation ribozyme variant] | 71.5 | 82.3 | 542 | 22.7 | 26.3 | 75.4
